Measured values reported in PMC11532494 (Nature Communications, 2024).
Several values for one entry are separate records, joined by “and”; a condition that tells them apart may be missing. Identical values can stand only once. Like-named read-outs stand apart in the source and are kept apart here. No end group written: not given here. *: point of attachment. AMC = Cc1cc(=O)oc2cc(N*)ccc12

What was measured:
VcHdaH (5b) = format: biochemical, Vibrio cholerae; conditions: VcHdaH (5b); for [AMC]: Transform RFU in [AMC]
VsHdaH (1b) = format: biochemical, Vibrio sp.; conditions: VKDAC
PsApaH (4) = PsApaH (4) (Pseudomonas sp. M30-35, UniProt A0A1Y0KY79); format: biochemical; conditions: PsApaH (4)
Protocol: (§1) Experiments with SIRT2 and SIRT5 were supplemented with NAD^+ (500 µM). Thereafter, a solution of trypsin (25 µL, 5.0 mg/mL; final concentration of 2.5 mg/mL) was added, and the development of the assay was allowed to proceed for 90 min at room temperature before fluorescence analysis. […] To this end, a single category is given to all conversions >48% on the heatmap. […] For the H4-derived peptide LGKbio no positive control was available.

KpHdaH (1b) = KpHdaH (1b) (Klebsiella pneumoniae, UniProt A0A377Z5F6); format: biochemical; conditions: KpHdaH (1b)
Controls = assay: Substrate screening assay (acyl-peptide-AMC), control enzymes; format: biochemical
BsAcuC (2c) = molecular target: T1, BsAcuC (2c) (Bacillus subtilis, UniProt P39067); assay: Substrate screening assay (acyl-peptide-AMC); format: biochemical; conditions: BsAcuC (2c); for [AMC]: Transform RFU in [AMC]
T1 construct: made in house; host or cells: E. coli BL21 (DE3)
T1 sequence (P39067 1-387): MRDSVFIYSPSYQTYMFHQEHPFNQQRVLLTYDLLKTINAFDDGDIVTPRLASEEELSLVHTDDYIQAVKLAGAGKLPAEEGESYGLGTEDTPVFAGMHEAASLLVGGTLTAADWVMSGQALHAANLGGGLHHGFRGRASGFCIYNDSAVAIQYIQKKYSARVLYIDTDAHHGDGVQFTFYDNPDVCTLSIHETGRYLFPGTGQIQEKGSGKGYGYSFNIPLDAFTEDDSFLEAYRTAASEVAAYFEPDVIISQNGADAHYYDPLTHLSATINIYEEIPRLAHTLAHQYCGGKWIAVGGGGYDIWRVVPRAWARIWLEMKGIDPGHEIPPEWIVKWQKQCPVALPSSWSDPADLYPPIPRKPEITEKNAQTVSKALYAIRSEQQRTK
Protocol: as §1

RsPrpH (1b) = assay: Substrate screening assay (acyl-peptide-AMC); format: biochemical, Rhizorhabdus sp.; conditions: RsPrpH (1b); for [AMC]: Transform RFU in [AMC]
RwDmhA (1b) = RwDmhA (1b) (Rhizorhabdus wittichii, UniProt A0A067XIQ6); format: biochemical; conditions: RwDmhA (1b)
[1] = Transform RFU in [AMC], Controls, Sample 1
[2] = Transform RFU in [AMC], Controls, Sample 2
[3] = Transform RFU*2, Controls, Sample 1
[4] = Transform RFU*2, Controls, Sample 2

| Substance | [AMC] (VcHdaH (5b); Sample 1) [nM] | [AMC] (VcHdaH (5b); Sample 2) [nM] | Relative Fluorescene Units (RFU) (VcHdaH (5b); Transform RFU*2, Sample 1) | Relative Fluorescene Units (RFU) (VcHdaH (5b); Transform RFU*2, Sample 2) | Relative Fluorescene Units (RFU) (VcHdaH (5b); Sample 1) | Relative Fluorescene Units (RFU) (VcHdaH (5b); Sample 2) | Relative Fluorescene Units (RFU) (VsHdaH (1b); Transform RFU*2, Sample 1) | Relative Fluorescene Units (RFU) (VsHdaH (1b); Transform RFU*2, Sample 2) | Relative Fluorescene Units (RFU) (VsHdaH (1b); Sample 1) | Relative Fluorescene Units (RFU) (VsHdaH (1b); Sample 2) | Relative Fluorescene Units (RFU) (PsApaH (4); Sample 1) | Relative Fluorescene Units (RFU) (PsApaH (4); Sample 2) | Relative Fluorescene Units (RFU) (PsApaH (4); Transform RFU*2, Sample 1) | Relative Fluorescene Units (RFU) (KpHdaH (1b); Sample 1) | Relative Fluorescene Units (RFU) (KpHdaH (1b); Sample 2) | Relative Fluorescene Units (RFU) (KpHdaH (1b); Transform RFU*2, Sample 1) | Relative Fluorescene Units (RFU) (KpHdaH (1b); Transform RFU*2, Sample 2) | Relative Fluorescene Units (RFU) (BsAcuC (2c); Sample 1) | Relative Fluorescene Units (RFU) (BsAcuC (2c); Sample 2) | [AMC] (BsAcuC (2c); Sample 1) [nM] | other results |
| --- | --- | --- | --- | --- | --- | --- | --- | --- | --- | --- | --- | --- | --- | --- | --- | --- | --- | --- | --- | --- | --- |
| QPKKhex (QPKK-{AMC}; not fully specified (residue 4); printed as QPKKhex; also: hexanoyl-lysine (which Lys not given here); UniProt P04637 317-320, looked up, fragment) | -22.46 | 121.09 | -46 | 248 | -23 | 124 | 72 | 194 | 36 | 97 | 128 | 61 | 256 | 170 | 14 | 340 | 28 | 1720 | 1255 | 1679.69 | Relative Fluorescene Units (RFU) (PsApaH (4); Transform RFU*2, Sample 2): 122 RFU; [AMC] (Controls): 3.01563 µM and 4.0166 µM; [AMC] (BsAcuC (2c); Sample 2): 1225.59 nM; Relative Fluorescene Units (RFU) (BsAcuC (2c); Transform RFU*2, Sample 1): 3440 RFU; Relative Fluorescene Units (RFU) (BsAcuC (2c); Transform RFU*2, Sample 2): 2510 RFU |
| QPKKlau (QPKK-{AMC}; not fully specified (residue 4); printed as QPKKlau; also: lauroyl-lysine (which Lys not given here); UniProt P04637 317-320, looked up, fragment) | -112.30 | -47.85 | -230 | -98 | -115 | -49 | -308 | 12 | -154 | 6 | 196 | 66 | 392 | -177 | -96 | -354 | -192 | 1004 | 695 | 980.47 | Relative Fluorescene Units (RFU) (PsApaH (4); Transform RFU*2, Sample 2): 132 RFU; [AMC] (Controls): 10.32715 µM and 12.34863 µM; [AMC] (BsAcuC (2c); Sample 2): 678.71 nM; Relative Fluorescene Units (RFU) (BsAcuC (2c); Transform RFU*2, Sample 1): 2008 RFU; Relative Fluorescene Units (RFU) (BsAcuC (2c); Transform RFU*2, Sample 2): 1390 RFU |
| QPKKmyr (QPKK-{AMC}; not fully specified (residue 4); printed as QPKKmyr; also: myristoyl-lysine (which Lys not given here); UniProt P04637 317-320, looked up, fragment) | -96.68 | -269.53 | -198 | -552 | -99 | -276 | 354 | -1178 | 177 | -589 | 40 | 113 | 80 | 178 | 116 | 356 | 232 | 313 | 767 | 305.66 | Relative Fluorescene Units (RFU) (PsApaH (4); Transform RFU*2, Sample 2): 226 RFU; Relative Fluorescene Units (RFU) (RsPrpH (1b); Sample 1): -108 RFU; Relative Fluorescene Units (RFU) (RsPrpH (1b); Sample 2): -824 RFU; [AMC] (RsPrpH (1b); Sample 1): -105.47 nM; [AMC] (RsPrpH (1b); Sample 2): -804.69 nM; Relative Fluorescene Units (RFU) (RsPrpH (1b); Transform RFU*2, Sample 1): -216 RFU; Relative Fluorescene Units (RFU) (RsPrpH (1b); Transform RFU*2, Sample 2): -1648 RFU; Relative Fluorescene Units (RFU) (Controls): 6155 RFU and 7393 RFU; [AMC] (Controls; [1]): 6.01074 µM; [AMC] (Controls; [2]): 7.21973 µM; Relative Fluorescene Units (RFU) (Controls; [3]): 12310 RFU; Relative Fluorescene Units (RFU) (Controls; [4]): 14786 RFU; [AMC] (BsAcuC (2c); Sample 2): 749.02 nM; Relative Fluorescene Units (RFU) (BsAcuC (2c); Transform RFU*2, Sample 1): 626 RFU; Relative Fluorescene Units (RFU) (BsAcuC (2c); Transform RFU*2, Sample 2): 1534 RFU; Relative Fluorescene Units (RFU) (RwDmhA (1b); Sample 1): -346 RFU; Relative Fluorescene Units (RFU) (RwDmhA (1b); Sample 2): -865 RFU; Relative Fluorescene Units (RFU) (RwDmhA (1b); Transform RFU*2, Sample 1): -692 RFU; Relative Fluorescene Units (RFU) (RwDmhA (1b); Transform RFU*2, Sample 2): -1730 RFU |
| QPKKoct (QPKK-{AMC}; not fully specified (residue 4); printed as QPKKoct; also: octanoyl-lysine (which Lys not given here); UniProt P04637 317-320, looked up, fragment) | 67.38 | 71.29 | 138 | 146 | 69 | 73 | 248 | 194 | 124 | 97 | 88 | 73 | 176 | -13 | -43 | -26 | -86 | 2401 | 1622 | 2344.73 | Relative Fluorescene Units (RFU) (RsPrpH (1b); Sample 1): 4 RFU; Relative Fluorescene Units (RFU) (RsPrpH (1b); Sample 2): 72 RFU; [AMC] (RsPrpH (1b); Sample 1): 3.91 nM; [AMC] (RsPrpH (1b); Sample 2): 70.31 nM; Relative Fluorescene Units (RFU) (RsPrpH (1b); Transform RFU*2, Sample 1): 8 RFU; Relative Fluorescene Units (RFU) (RsPrpH (1b); Transform RFU*2, Sample 2): 144 RFU; Relative Fluorescene Units (RFU) (Controls): 6579 RFU and 10102 RFU; [AMC] (Controls; [1]): 6.4248 µM; [AMC] (Controls; [2]): 9.86523 µM; Relative Fluorescene Units (RFU) (Controls; [3]): 13158 RFU; Relative Fluorescene Units (RFU) (Controls; [4]): 20204 RFU; [AMC] (BsAcuC (2c); Sample 2): 1583.98 nM; Relative Fluorescene Units (RFU) (BsAcuC (2c); Transform RFU*2, Sample 1): 4802 RFU; Relative Fluorescene Units (RFU) (BsAcuC (2c); Transform RFU*2, Sample 2): 3244 RFU; Relative Fluorescene Units (RFU) (RwDmhA (1b); Sample 1): 53 RFU; Relative Fluorescene Units (RFU) (RwDmhA (1b); Sample 2): 75 RFU; Relative Fluorescene Units (RFU) (RwDmhA (1b); Transform RFU*2, Sample 1): 106 RFU; Relative Fluorescene Units (RFU) (RwDmhA (1b); Transform RFU*2, Sample 2): 150 RFU |
| QPKKpal (QPKK-{AMC}; not fully specified (residue 4); printed as QPKKpal; also: palmitoyl-lysine (which Lys not given here); UniProt P04637 317-320, looked up, fragment) | 22.46 | -39.06 | 46 | -80 | 23 | -40 | 82 | -38 | 41 | -19 | 40 | 14 | 80 | 9 | -4 | 18 | -8 | 139 | 15 | 135.74 | Relative Fluorescene Units (RFU) (PsApaH (4); Transform RFU*2, Sample 2): 28 RFU; [AMC] (Controls): 8.07129 µM and 10.51367 µM; [AMC] (BsAcuC (2c); Sample 2): 14.65 nM; Relative Fluorescene Units (RFU) (BsAcuC (2c); Transform RFU*2, Sample 1): 278 RFU; Relative Fluorescene Units (RFU) (BsAcuC (2c); Transform RFU*2, Sample 2): 30 RFU |
